Legend:
Test in all cases: flow cytometry of CAR T cells stained with Fc-fusion antigen and anti-human Fc-specific antibodies
[1] = molecular target: T1, CAR-29 (human, UniProt P01732 183-206; Q07011 214-255; P20963 52-163)
T1 construct: domain: transmembrane domain;domain: 4-1BB domain;domain: CD3zeta domain; Chimeric antigen receptor on transduced human T cells; also called pTRPE-C29-gs-BBz
Method: (§1) To create CAR-T expressing cells, human T cells from healthy donors were activated with anti-CD3 and anti-CD28 coated paramagnetic beads (DYNABEADS® Human T-Activator CD3/CD28, Life Technologies). One day following activation, cells were transduced with lentiviral vectors encoding GFRα4-directed CARs (original rabbit P4-10 and humanized versions), a CD19-directed control CAR (FMC63(cd8)bbz), or were left non-transduced (NTD). Cells were expanded and on day 7, cells were evaluated for cell-surface expression of the CARs by flow cytometry (FACSCalibur, BD Biosciences, Franklin Lakes, N.J.). Fluorescently-labeled goat anti-rabbit antibodies detected CAR P4-10, the original rabbit GFRα4-directed CAR, and fluorescently-labeled Protein L detected the murine CD19-directed CAR (FIG. 19A, “P410” and “19bbz”, respectively). Fluorescently-labeled rabbit anti-human antibodies (“RaH”) detected CARs 10, 14, 25, and 29 (FIG. 19B). Expression of cell-surface CARs were also detected by staining with antigen using recombinant human Fc-fusions of GFRα4 or CD19 antigen followed by detection of bound antigen with fluorescently-labeled anti-human Fc-specific antibodies (FIG. 19C). Appropriately, CD19-Fc only bound to CD19-directed CARs while GFRα4-Fc bound to both rabbit P4-10 and humanized P4-10 CARs but not the CD19-directed CAR.

[2] = molecular target: T2, CAR-10 (human, UniProt P01732 183-206; Q07011 214-255; P20963 52-163)
T2 construct: domain: transmembrane domain;domain: 4-1BB domain;domain: CD3zeta domain; Chimeric antigen receptor on transduced human T cells; also called CAR10bbz; pTRPE-C10-gs-BBz
T2 sequence (P01732 other isoform, or with tags, fused parts or gaps limits assumed): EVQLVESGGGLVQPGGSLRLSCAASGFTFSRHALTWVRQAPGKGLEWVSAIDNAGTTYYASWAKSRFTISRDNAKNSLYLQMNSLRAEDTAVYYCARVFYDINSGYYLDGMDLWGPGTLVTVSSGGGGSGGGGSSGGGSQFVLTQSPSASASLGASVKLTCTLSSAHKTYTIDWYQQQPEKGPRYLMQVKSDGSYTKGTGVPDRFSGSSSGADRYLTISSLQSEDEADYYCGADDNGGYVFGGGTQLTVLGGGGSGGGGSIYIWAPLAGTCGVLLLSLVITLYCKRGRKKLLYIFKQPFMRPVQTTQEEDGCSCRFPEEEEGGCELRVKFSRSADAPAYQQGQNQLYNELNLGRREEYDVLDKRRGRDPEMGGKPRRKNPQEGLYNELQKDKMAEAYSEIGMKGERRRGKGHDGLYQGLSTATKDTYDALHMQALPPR
Method: as §1

[3] = molecular target: T3, CAR-14 (human, UniProt P01732 183-206; Q07011 214-255; P20963 52-163)
T3 construct: domain: transmembrane domain;domain: 4-1BB domain;domain: CD3zeta domain; Chimeric antigen receptor on transduced human T cells; also called pTRPE-C14-gs-BBz
T3 sequence (P01732 other isoform, or with tags, fused parts or gaps limits assumed): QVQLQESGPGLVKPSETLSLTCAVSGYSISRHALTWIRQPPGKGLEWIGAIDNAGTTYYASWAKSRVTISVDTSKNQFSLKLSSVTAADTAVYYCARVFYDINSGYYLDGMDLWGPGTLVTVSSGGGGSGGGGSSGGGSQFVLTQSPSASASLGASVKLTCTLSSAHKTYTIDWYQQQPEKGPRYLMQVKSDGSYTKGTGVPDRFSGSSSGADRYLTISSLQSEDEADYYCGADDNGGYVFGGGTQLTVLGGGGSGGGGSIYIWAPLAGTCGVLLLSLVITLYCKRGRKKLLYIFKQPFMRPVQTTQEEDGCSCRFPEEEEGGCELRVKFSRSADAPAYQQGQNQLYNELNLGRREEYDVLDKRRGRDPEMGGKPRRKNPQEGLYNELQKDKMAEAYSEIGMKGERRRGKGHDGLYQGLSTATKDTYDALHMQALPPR
Method: as §1

[4] = molecular target: T4, CAR-25 (human, UniProt P01732 183-206; Q07011 214-255; P20963 52-163)
T4 construct: domain: transmembrane domain;domain: 4-1BB domain;domain: CD3zeta domain; Chimeric antigen receptor on transduced human T cells; also called pTRPE-C25-gs-BBz
T4 sequence (P01732 other isoform, or with tags, fused parts or gaps limits assumed): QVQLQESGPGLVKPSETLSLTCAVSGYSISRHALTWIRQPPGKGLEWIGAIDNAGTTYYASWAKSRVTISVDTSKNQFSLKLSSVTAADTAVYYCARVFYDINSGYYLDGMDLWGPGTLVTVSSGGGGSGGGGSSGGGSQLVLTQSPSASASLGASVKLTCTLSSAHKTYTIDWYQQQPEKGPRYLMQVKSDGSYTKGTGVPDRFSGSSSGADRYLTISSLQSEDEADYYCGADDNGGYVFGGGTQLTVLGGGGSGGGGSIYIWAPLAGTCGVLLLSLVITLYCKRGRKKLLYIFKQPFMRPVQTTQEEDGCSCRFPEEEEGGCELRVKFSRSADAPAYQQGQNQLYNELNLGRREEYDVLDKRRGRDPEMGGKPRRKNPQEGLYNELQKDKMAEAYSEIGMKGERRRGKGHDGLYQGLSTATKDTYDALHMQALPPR
Method: as §1

Measured: binding result

T1 sequence (P01732 other isoform, or with tags, fused parts or gaps limits assumed): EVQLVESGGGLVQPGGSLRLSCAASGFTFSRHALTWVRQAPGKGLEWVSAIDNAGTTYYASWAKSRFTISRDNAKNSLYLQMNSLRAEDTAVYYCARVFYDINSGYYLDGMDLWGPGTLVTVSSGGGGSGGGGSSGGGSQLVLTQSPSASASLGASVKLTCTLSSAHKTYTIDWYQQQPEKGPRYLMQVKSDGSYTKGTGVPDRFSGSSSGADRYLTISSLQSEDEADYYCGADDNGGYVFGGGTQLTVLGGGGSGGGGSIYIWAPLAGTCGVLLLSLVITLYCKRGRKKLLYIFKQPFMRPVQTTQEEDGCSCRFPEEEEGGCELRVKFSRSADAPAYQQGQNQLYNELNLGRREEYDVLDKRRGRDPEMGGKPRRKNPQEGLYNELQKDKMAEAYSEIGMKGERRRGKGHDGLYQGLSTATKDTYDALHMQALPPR

B1: CD19-Fc (Fc fusion, UniProt P15391 20-291, looked up)
chain: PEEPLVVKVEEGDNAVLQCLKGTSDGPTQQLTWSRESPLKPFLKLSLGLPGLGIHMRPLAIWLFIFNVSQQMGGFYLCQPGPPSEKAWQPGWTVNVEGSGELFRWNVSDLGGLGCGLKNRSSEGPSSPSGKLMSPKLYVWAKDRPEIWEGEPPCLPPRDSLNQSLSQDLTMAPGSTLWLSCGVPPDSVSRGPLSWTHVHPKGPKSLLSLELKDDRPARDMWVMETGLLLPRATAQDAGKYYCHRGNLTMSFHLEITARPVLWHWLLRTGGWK
notes: The words recombinant human Fc-fusions leave open whether human means the Fc or the antigen; also called recombinant human Fc-fusion of CD19 antigen; Fc-conjugated soluble CD19; not shown: human Fc
no binding: all assays above

Reference: patent publication US20210095036A1 (University of Pennsylvania, published 2021)
